Measurements taken from US20260209325A1 (SCHOLAR ROCK, published 2026).
Values belong to the binder of their own block, whether it stands above or below them.

What was measured:
[1] = biological target: T1, recombinant human latent myostatin (human, UniProt O14793 24-375, biotinylated (in the Octet pH assay only)); assay: BLI Octet Red384, biotin human latent myostatin on streptavidin tips
T1 construct: also called biotinylated human latent myostatin
Procedure: (§1) Binding was performed at pH 7.4 and dissociation at pH 5.5 in an Octet Red384@assay. Streptavidin biosensors were baselined in 1x kinetics buffer (KB) (Sartorius) for one minute, then loaded with 100 nM biotinylated human latent myostatin for five minutes, followed by another baseline step of one minute in 1x KB. Binding of test antibodies was performed for five minutes and then dissociation was performed in PBS at either pH 7.4 or pH 5.5 for five minutes. Analysis was performed using a partial fit, in which full dissociation was projected. Kd at pH 5.5 was divided by Kd at pH 7.4 to calculate pH sensitivity.

[2] = biological target: T1, recombinant human latent myostatin; assay: cell-based or functional assay
[3] = biological target: T2, human pro-myostatin (human, UniProt O14793 24-375, biotinylated (in the SPR assay)); assay: Ab KD, summary Table 11; method and antigen not stated there
T2 construct: Disulfide-linked homodimer; also called proGDF8 (human)

[4] = biological target: T2, human pro-myostatin; assay: Fab KD, summary Table 11; method and antigen not stated there
[5] = biological target: mouse GDF-11 (mouse, UniProt Q9Z1W4 297-405, limits assumed); assay: plate binding assay, OD 450 nm, one antibody concentration that is not given, on Mu-GDF-11 (method not described in the text)
mouse GDF-11, sequence (Q9Z1W4 297-405 limits assumed): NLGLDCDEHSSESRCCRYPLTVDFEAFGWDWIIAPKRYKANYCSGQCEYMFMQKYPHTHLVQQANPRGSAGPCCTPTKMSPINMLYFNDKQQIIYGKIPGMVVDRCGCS

[6] = biological target: human GDF-11 (human, UniProt O95390 299-407, limits assumed); assay: plate binding assay, OD 450 nm, one antibody concentration that is not given, on Hu-GDF-11 (method not described in the text)
human GDF-11, sequence (O95390 299-407 limits assumed): as the sequence (Q9Z1W4 297-405 limits assumed) above

[7] = biological target: T3, murine pro-myostatin (mouse, UniProt O08689 25-376, biotinylated (in the SPR assay)); assay: plate binding assay, OD 450 nm, antibody titrated 0.0003 to 100 nM, panel 'Mu-Pro-GDF-8 Plate 2' (method not described in the text)
T3 construct: also called proGDF8 (mouse); mouse pro-myostatin

[8] = biological target: T1, recombinant human latent myostatin; assay: BLI (Octet Red384): streptavidin biosensors loaded with biotinylated human latent myostatin, antibody association 300 s, dissociation in PBS at pH 7.4 or pH 5.5
Procedure: as §1

[9] = biological target: T2, human pro-myostatin; assay: SPR Biacore 8K, biotin-antigen captured

fold difference in off-rate (Kd at pH 5.5 / Kd at pH 7.4) [1]: 0.9 fold | mTLL2 IC50 [2]: 0.208 nM | Kd [3]: 0.155 nM
B1: Ab131 (antibody, human IgG4 S228P, kappa, V domains shown)
VH: EVQLVESGGGLVQPGGSLRLSCAASGSAFSSYGMSWVRQAPGKGLELVASIGGTGATYYPDSVKGRFTISRDNAKNSLYLQMNSLRAEDTAVYYCARDLLVRFLEWGHYYGMDVWGQGTTVTVSS
VL: DIVMTQSPLSLPVTPGEPASISCRSSQSLLHSSGYNFLHWYLQKPGQSPQLLIYAASSRAPGIPDRFSGSGSGTDFTLKISRVEAEDVGVYYCQHGGQGPTFGGGTKVEIKR

Kd [4]: 21.9 nM
B2: Ab105 Fab (Fab, V domains shown)
VH: EVQLVESGGGLVQPGGSLRLSCAASGSAFSSYGMSWVRQAPGKGLELVASIGGTGATYYPDSVKGRFTISRDNAKNSLYLQMNSLRAEDTAVYYCARDLLVRFLEWGHYYGMDVWGQGTTVTVSS
VL: DIVMTQSPLSLPVTPGEPASISCRSSQSLLHSSGYNFLHWYLQKPGQSPQLLIYAASSRAPGIPDRFSGSGSGTDFTLKISRVEAEDVGVYYCMHGGQGPTFGGGTKVEIK
notes: Fab of Ab105

Kd [4]: 39.5 nM
B3: Fab fragment of Ab109 (Fab, V domains shown)
VH: EVQLVESGGGLVQPGGSLRLSCAASGFTFSSYGMSWVRQAPGKGLELVASFTGSGGTYYPDSVKGRFTISRDNAKNSLYLQMNSLRAEDTAVYYCARDLLIRFLEWSHYYGMDVWGQGTTVTVSS
VL: DIVMTQSPLSLPVTPGEPASISCRSSQSLLHSSGHNFLHWYLQKPGQSPQLLIYEVSNRVSGVPDRFSGSGSGTDFTLKISRVEAEDVGVYYCMQQTQYPPTFGGGTKVEIK
notes: Fab of Ab109 (molecular weight 49.25 kDa); also called Ab109 Fab

Kd [4]: 17.4 nM
B4: Ab131 Fab (Fab, V domains shown)
VH: EVQLVESGGGLVQPGGSLRLSCAASGSAFSSYGMSWVRQAPGKGLELVASIGGTGATYYPDSVKGRFTISRDNAKNSLYLQMNSLRAEDTAVYYCARDLLVRFLEWGHYYGMDVWGQGTTVTVSS
VL: DIVMTQSPLSLPVTPGEPASISCRSSQSLLHSSGYNFLHWYLQKPGQSPQLLIYAASSRAPGIPDRFSGSGSGTDFTLKISRVEAEDVGVYYCQHGGQGPTFGGGTKVEIK
notes: Fab of Ab131

Kd [4]: 61.4 nM
B5: Ab132 Fab (Fab, V domains shown)
VH: EVQLVESGGGLVQPGGSLRLSCAASGFTFSSYGMSWVRQAPGKGLELVASFTGSGGTYYPDSVKGRFTISRDNAKNSLYLQMNSLRAEDTAVYYCARDLLIRFLEWSHYYGMDVWGQGTTVTVSS
VL: DIVMTQSPLSLPVTPGEPASISCRSSQSLLHSSGHNFLHWYLQKPGQSPQLLIYEVSNRVSGVPDRFSGSGSGTDFTLKISRVEAEDVGVYYCQQQTQYPPTFGGGTKVEIK
notes: Fab of Ab132

Kd [4]: 23 nM
B6: Ab133 Fab (Fab, V domains shown)
VH: EVQLVESGGGLVQPGGSLRLSCAASGFTFSSYGMSWVRQAPGKGLELVASFTGSGGAYYPDSVKGRFTISRDNAKNSLYLQMNSLRAEDTAVYYCARDLLIRFLEWSHYYGMDVWGQGTTVTVSS
VL: DIVMTQSPLSLPVTPGEPASISCRSSQSLLHSSGHNFLHWYLQKPGQSPQLLIYEVSNRVSGVPDRFSGSGSGTDFTLKISRVEAEDVGVYYCQQQTQYPGTFGGGTKVEIK
notes: Fab of Ab133

Kd [4]: 19 nM
B7: Ab141 Fab (Fab, V domains shown)
VH: EVQLVESGGGLVQPGGSLRLSCAASGFTFSSYGMSWVRQAPGKGLELVASFTGSGGAYYPDSVKGRFTISRDNAKNSLYLQMNSLRAEDTAVYYCARDLLIRFLEWSHYYGMDVWGQGTTVTVSS
VL: DIVMTQSPLSLPVTPGEPASISCRSSQSLLHSSGHNFLHWYLQKPGQSPQLLIYEVSNRVSGVPDRFSGSGSGTDFTLKISRVEAEDVGVYYCMQQTQYPGTFGGGTKVEIK
notes: Fab of Ab141

binding result [5]: no binding | binding result [6]: no binding | binding result [7]: binds
B8: Ab120 (antibody, human IgG4 S228P, kappa, V domains shown)
VH: QVQLVQSGAEVKKPGASVKVSCKVSGGTFSTFHIHWVRQAPGKGLEWMGGISAYSGSTIYAQKFQGRVTMTEDTSTDTAYMELSSLKSEDTAVYYCARARYVDDAFDIWGQGTMVTVSS
VL: DIQMTQSPSSVSASVGDRVTITCRASEDISNFLAWYQQKPGKAPKLLIYAASDLLSGVPSRFSGSGSGTDFTLTISSLQPEDFANYYCQKYISAPSFGGGTKVEIKR

Kd [4]: 5.51 nM
B9: Ab123 Fab (Fab, V domains shown)
VH: EVQLVESGGGLVQPGGSLRLSCAASGFTFSKYDMSWVRQAPGKGLELVASISSSGGTRYYPDSVKGRFTISRDNAKNSLYLQMNSLRAEDTAVYYCAKDLWVASPGYGMDVWGQGTTVTVSS
VL: DIVMTQSPLSLPVTPGEPASISCRSSQSLLHSSGHNYLHWYLQKPGQSPQLLIYLGSIRAPGVPDRFSGSGSGTDFTLKISRVEAEDVGVYYCMQALLNPPTFGGGTKVEIKR
notes: Fab of Ab123; also called Ab123 Fab fragment

Kd [4]: 6.19 nM
B10: Ab112 Fab (Fab, V domains shown)
VH: QVQLVQSGAEVKKPGASVKVSCKVSGGTFGIYAIHWVRQAPGKGLEWMGGTIPVFGTAIYAQKFQGRVTMTEDTSTDTAYMELSSLKSEDTAVYYCASLTGIAAAGTHPARGGMDVWGQGTTVTVSS
VL: DIQMTQSPSSVSASVGDRVTITCRASPSISSYLAWYQQKPGKAPKLLIYAASRLQSGVPSRFSGSGSGTDFTLTISSLQPEDFANYYCQEYLSFPLTFGGGTKVEIK
notes: Fab of Ab112; also called Ab112 Fab fragment

fold difference in off-rate (Kd at pH 5.5 / Kd at pH 7.4) [8]: 7.9 fold | Kd [9]: 0.11 nM | koff [9]: 0.000577 s⁻¹ | kon [9]: 5.27e+06 M⁻¹ s⁻¹
B11: Ab138 (antibody, human IgG4 S228P, kappa, V domains shown)
VH: EVQLVESGGGLVQPGGSLRLSCAASGFTFTSYGMSWVRQAPGKGLELVASITGSKGETYYPDSVKGRFTISRDNAKNSLYLQMNSLRAEDTAVYYCARDLLVRFLEWSHYYGMDVWGQGTTVTVSS
VL: DIVMTQSPLSLPVTPGEPASISCRSSQSLLHSSGHNFLHWYLQKPGQSPQLLIYETSNRAPGIPDRFSGSGSGTDFTLKISRVEAEDVGVYYCQQATQFPRPFGGGTKVEIKR

Kd [4]: 44.4 nM
B12: Ab102 Fab (Fab, V domains shown)
VH: EVQLVESGGGLVQPGGSLRLSCAASGFTFTSYGMSWVRQAPGKGLELVASITGSGGETYYPDSVKGRFTISRDNAKNSLYLQMNSLRAEDTAVYYCARDLLVRFLEWSHYYGMDVWGQGTTVTVSS
VL: DIVMTQSPLSLPVTPGEPASISCRSSQSLLHSSGHNFLHWYLQKPGQSPQLLIYETSNRAPGIPDRFSGSGSGTDFTLKISRVEAEDVGVYYCMQATQFPRPFGGGTKVEIK

fold difference in off-rate (Kd at pH 5.5 / Kd at pH 7.4) [8]: 10.4 fold | Kd [9]: 0.109 nM | koff [9]: 0.000711 s⁻¹ | kon [9]: 6.53e+06 M⁻¹ s⁻¹
B13: Ab140 (antibody, human IgG4 S228P, kappa, V domains shown)
VH: EVQLVESGGGLVQPGGSLRLSCAASGFTFSSYGMSWVRQAPGKGLELVASFTGSGGTYYPDSVKGRFTISRDNAKNSLYLQMNSLRAEDTAVYYCARDNLIRFLEWSHYYGMDVWGQGTTVTVSS
VL: DIVMTQSPLSLPVTPGEPASISCRSSQSLLHSSGHNFLHWYLQKPGQSPQLLIYEVSNRESGVPDRFSGSGSGTDFTLKISRVEAEDVGVYYCQQQTQYPPTFGGGTKVEIKR

fold difference in off-rate (Kd at pH 5.5 / Kd at pH 7.4) [8]: 26 fold
B14: Ab137 (antibody, human IgG4 S228P, kappa, V domains shown)
VH: EVQLVESGGGLVQPGGSLRLSCAASGFTFSSYGMSWVRQAPGKGLELVASFTGSGGTYYPDSVKGRFTISRDNAKNSLYLQMNSLRAEDTAVYYCARDLLIRFLEWGHYYGMDVWGQGTTVTVSS
VL: DIVMTQSPLSLPVTPGEPASISCRSSQSLLHSSGHNFLHWYLQKPGQSPQLLIYEVSNRVSGVPDRFSGSGSGTDFTLKISRVEAEDVGVYYCMQQTQYPPTFGGGTKVEIKR

fold difference in off-rate (Kd at pH 5.5 / Kd at pH 7.4) [8]: 16.3 fold | Kd [9]: 0.121 nM | koff [9]: 0.0023 s⁻¹ | kon [9]: 1.9e+07 M⁻¹ s⁻¹
B15: Ab139 (antibody, human IgG4 S228P, kappa, V domains shown)
VH: EVQLVESGGGLVQPGGSLRLSCAASGFTFSSYGMSWVRQAPGKGLELVASFTGSGAAYYPDSVKGRFTISRDNAKNSLYLQMNSLRAEDTAVYYCARDLLIRFLEWSHYYGMDVWGQGTTVTVSS
VL: DIVMTQSPLSLPVTPGEPASISCRSSQSLLHSSGHNFLHWYLQKPGQSPQLLIYESSNRVSGVPDRFSGSGSGTDFTLKISRVEAEDVGVYYCQQQTQYPPTFGGGTKVEIKR

Kd [4]: 53.8 nM
B16: Ab130 Fab (Fab, V domains shown)
VH: EVQLVESGGGLVQPGGSLRLSCAASGFTFTSYGMSWVRQAPGKGLELVASITGSGGETYYPDSVKGRFTISRDNAKNSLYLQMNSLRAEDTAVYYCARDLLVRFLEWSHYYGMDVWGQGTTVTVSS
VL: DIVMTQSPLSLPVTPGEPASISCRSSQSLLHSSGHNFLHWYLQKPGQSPQLLIYETSNRAPGIPDRFSGSGSGTDFTLKISRVEAEDVGVYYCQQATQFPRPFGGGTKVEIK
notes: Fab of Ab130
